Patent US20210355220A1 (TIKCRO TECHNOLOGIES, published 2021)

Key:
[1] = target: T1, human CTLA-4 expressed on cells (human, UniProt P16410 36-223); assay: flow cytometry, inhibition of CD80-mFC binding to HEK293-hCTLA-4 cells, reference ipilimumab
T1 construct: whole, on cells; On stably or transiently transfected HEK293 cells; also called hCTLA-4; HEK293-hCTLA-4 cells
Method: (§1) As part of their activity, CTLA-4 therapeutic antibodies block the interaction between CTLA-4 and its ligands, leaving the ligands free for CD28 binding. […] First, HEK293-hCTLA-4 cells were incubated with the tested antibodies in a serial dilution for 30 minutes. […] The fluorescence was measured and analyzed. The experiment was performed in triplicate and is representative of three biological repeats.

hBTLA on HEK293 cells = target: T2, hBTLA on HEK293 cells (human, UniProt Q7Z6A9 31-289); assay: flow cytometry on transfected HEK293 cells
T2 construct: whole, on cells
Method: (§2) HEK293 cells were transfected with expression vectors of the following immune-related proteins: hBTLA, hICOS, hCD28, hPDL1, hPD1, hPDL2, and hCTLA-4. Over-expression of the proteins was verified using commercial antibodies against each target. […] Antibody binding to cells was then detected using flow cytometry. Cells that were incubated only with the secondary antibody were used as a background control. […] Note that “+” indicates binding above the background level and “-” indicate no binding as compared to the background level.

hPD1 on HEK293 cells = target: T3, hPD1 on HEK293 cells (human, UniProt Q15116 25-288); assay: flow cytometry on transfected HEK293 cells
T3 construct: whole, on cells
Method: as §2

hPDL1 on HEK293 cells = target: T4, hPDL1 on HEK293 cells (human, UniProt Q9NZQ7 19-290); assay: flow cytometry on transfected HEK293 cells
T4 construct: whole, on cells
Method: as §2

hCD28 on HEK293 cells = target: T5, hCD28 on HEK293 cells (human, UniProt P10747 19-220); assay: flow cytometry on transfected HEK293 cells
T5 construct: whole, on cells
Method: as §2

hICOS on HEK293 cells = target: T6, hICOS on HEK293 cells (human, UniProt Q9Y6W8 21-199); assay: flow cytometry on transfected HEK293 cells
T6 construct: whole, on cells
T6 sequence (looked up): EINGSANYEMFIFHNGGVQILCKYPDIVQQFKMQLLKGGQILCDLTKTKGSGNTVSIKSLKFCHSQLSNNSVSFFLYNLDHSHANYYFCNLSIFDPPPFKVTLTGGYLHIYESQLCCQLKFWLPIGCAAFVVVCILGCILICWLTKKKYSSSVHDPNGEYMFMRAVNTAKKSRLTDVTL
Method: as §2

[2] = target: T1, human CTLA-4 expressed on cells; assay: flow cytometry on transfected HEK293 cells
Method: as §2

hPDL2 on HEK293 cells = target: T7, hPDL2 on HEK293 cells (human, UniProt Q9BQ51 20-273); assay: flow cytometry on transfected HEK293 cells
T7 construct: whole, on cells
T7 sequence (looked up): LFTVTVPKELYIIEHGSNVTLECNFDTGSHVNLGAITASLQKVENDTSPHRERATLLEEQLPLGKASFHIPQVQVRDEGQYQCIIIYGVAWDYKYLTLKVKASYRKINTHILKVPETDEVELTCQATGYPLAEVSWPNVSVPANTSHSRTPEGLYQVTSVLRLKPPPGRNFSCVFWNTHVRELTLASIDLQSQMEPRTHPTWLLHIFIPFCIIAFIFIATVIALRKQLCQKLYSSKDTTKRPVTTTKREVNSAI
Method: as §2

[3] = target: T8, Pig (Sus scrofa) CTLA-4 on HEK293 cells (Sus scrofa, UniProt Q9MYX7 36-223); assay: flow cytometry on HEK293 cells transiently expressing pig CTLA-4, reference ipilimumab
T8 construct: whole, on cells; also called pig CTLA-4
Method: Macaque (Macaca fascicularis), pig (Sus scrofa) and mouse (Mus musculus) CTLA-4 proteins were transiently expressed on the surface of HEK293 cells. […] Binding was measured using FACS and analyzed.

[4] = target: non-recycling version of CTLA-4 on CTLA-4 effector cells (Promega CS186920) (human, UniProt P16410 36-223); assay: cell-based or functional assay
[5] = target: T1, human CTLA-4 expressed on cells; assay: flow cytometry, inhibition of CD86-mFC binding to HEK293-hCTLA-4 cells, reference ipilimumab
Method: as §1

[6] = target: T1, human CTLA-4 expressed on cells; assay: flow cytometry, inhibition of CD80-mFC binding to HEK293-hCTLA-4 cells, reference tremelimumab
Method: as §1

[7] = target: T1, human CTLA-4 expressed on cells; assay: flow cytometry on HEK293-hCTLA-4 cells
Method: To test the binding of antibodies to CTLA-4 under more physiological conditions, the binding of CTLA-4 antibodies to cell-surface CTLA-4 was tested. […] The surface expression of hCTLA-4 in the obtained cell line was tested using a commercial anti-CTLA-4 antibody and compared to the parent cell line (HEK293 without transfection). […] The anti-CTLA-4 antibodies were incubated in serial dilution concentrations with the HEK293-hCTLA-4 cells for 1 hour on ice. Following a wash step, an anti-human antibody conjugated to ALEXA FLUOR® 647® was added for an additional hour. The cells were washed, and propidium iodide (PI) was added to exclude dead cells. The fluorescent signal was measured using FACS and analyzed. Dead cells were removed based on the PI signal. The population was gated based on forward and side scatter (FSC and SSC) parameters, and doublets were removed. The Median Fluorescent Intensity (MFI) of the appropriate channel was calculated for the live single cells from each group. The MFI was plotted versus antibody concentration in Prism software (V6.01) and kinetic parameters were obtained using a curve fit dose response function with four parameters. […] The lower EC₅₀ values indicate increased binding affinity to cell surface hCTLA-4.

[8] = target: T1, human CTLA-4 expressed on cells; assay: flow cytometry, inhibition of CD80-mFC binding to HEK293-hCTLA-4 cells
Method: as §1

T1 sequence (P16410 36-223): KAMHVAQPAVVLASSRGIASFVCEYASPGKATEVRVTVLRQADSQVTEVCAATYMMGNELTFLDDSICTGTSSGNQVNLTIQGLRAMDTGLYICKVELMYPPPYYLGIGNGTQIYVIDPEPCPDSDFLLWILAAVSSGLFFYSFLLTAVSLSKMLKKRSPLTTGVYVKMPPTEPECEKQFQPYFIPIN
T4 sequence (Q9NZQ7 19-290): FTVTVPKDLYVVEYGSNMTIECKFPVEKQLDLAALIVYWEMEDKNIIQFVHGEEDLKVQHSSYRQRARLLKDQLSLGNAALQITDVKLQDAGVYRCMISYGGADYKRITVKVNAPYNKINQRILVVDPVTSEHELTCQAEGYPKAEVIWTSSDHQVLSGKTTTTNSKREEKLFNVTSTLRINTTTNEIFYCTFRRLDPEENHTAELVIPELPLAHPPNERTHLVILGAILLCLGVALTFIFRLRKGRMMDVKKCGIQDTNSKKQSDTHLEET
Sequence of non-recycling version of CTLA-4 on CTLA-4 effector cells (Promega CS186920) (P16410 36-223): as the sequence (P16410 36-223) above
T3 sequence (Q15116 25-288): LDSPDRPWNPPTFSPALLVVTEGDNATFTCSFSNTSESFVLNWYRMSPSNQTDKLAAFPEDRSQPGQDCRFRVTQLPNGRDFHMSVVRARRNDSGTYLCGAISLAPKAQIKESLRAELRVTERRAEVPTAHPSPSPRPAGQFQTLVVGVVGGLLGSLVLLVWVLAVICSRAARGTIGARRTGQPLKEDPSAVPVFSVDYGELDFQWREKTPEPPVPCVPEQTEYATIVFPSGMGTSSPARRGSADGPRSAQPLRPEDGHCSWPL
T8 sequence (Q9MYX7 36-223): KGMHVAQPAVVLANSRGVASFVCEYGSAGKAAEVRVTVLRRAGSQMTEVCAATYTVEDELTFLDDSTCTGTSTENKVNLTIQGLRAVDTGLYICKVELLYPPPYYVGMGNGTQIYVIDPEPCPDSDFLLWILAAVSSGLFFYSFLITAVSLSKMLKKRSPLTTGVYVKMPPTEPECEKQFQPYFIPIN

B1: Ab55h (antibody, V domains shown)
VH: QVQLQESGPGLVKPSETLSLTCAVSGYSISGDYYWGWIRQPPGKGLEWIGSIYHSGYTYYNPSLKSRVTISVDTSKNQFSLKLSSVTAADTAVYYCARDSGWYVIAFDYWGQGTLVTVSS
VL: EIVMTQSPATLSVSPGERATLSCRASQSVSSNLAWYQEKPGQAPRLLIYGASTRATGIPARFSGSGSGTEFTLTISSLQSEDFAVYYCQQYNNWPPLTFGGGTKVEIK
notes: Human form, compared with an hIgG1 isotype control
Ratio Ipilimumab:Ab55h of IC50 [1]: 3 fold
MFI (hBTLA on HEK293 cells): 68 MFI
binding result (hBTLA on HEK293 cells): no binding
MFI (hPD1 on HEK293 cells): 72 MFI
binding result (hPD1 on HEK293 cells): no binding
MFI (hPDL1 on HEK293 cells): 69 MFI
binding result (hPDL1 on HEK293 cells): no binding
MFI (hCD28 on HEK293 cells): 66 MFI
binding result (hCD28 on HEK293 cells): no binding
MFI (hICOS on HEK293 cells): 67 MFI
binding result (hICOS on HEK293 cells): no binding
MFI [2]: 3290 MFI
MFI (hPDL2 on HEK293 cells): 70 MFI
binding result (hPDL2 on HEK293 cells): no binding
Ratio Ipilimumab:Ab55h of EC50 [3]: 5590 fold
NFAT reporter EC50 [4]: 0.63 nM
NFAT reporter EC50, Ratio Ipilimumab:Ab55h [4]: 3.65 fold
Ratio Ipilimumab:Ab55h of IC50 [5]: 2.2 fold
Ratio Tremelimumab:Ab55h of IC50 [6]: 1.6 fold
EC50 [7]: 0.17 nM
IC50 [8]: 1.6 nM
